The record followed here is patent publication US10266566 (NORTH CAROLINA STATE UNIVERSITY, dated 2019).

In assay [1] the target is T1, albumin (human, UniProt P02768 25-609).
T1 construct: Impurity in the Cohn fraction II+III feed, seen on SDS-PAGE of the eluted fractions
The assay is described as follows: SDS-PAGE of fractions eluted from peptide resin loaded with Cohn fraction II+III.
Description: Each peptide resin was packed and swollen as described before. […] Toyopearl AF-rProtein A-650F resin was used as a positive control. As per manufacturer's instructions, the chromatographic protocol comprised binding with PBS, pH 7.4 (at a flow rate of 0.05 mL/min) and elution with 0.1M Glycine buffer pH 2.5 (at a flow rate of 0.4 mL/min). […] Fractions were collected and used for analysis of IgG purity and yield as described below.
The original peptide ligands were employed as positive controls. The crude stock of Cohn II+III paste was diluted in PBS to prepare the feed sample and solid particles were removed by filtration prior to injection into the column. […] Fractions were collected and analyzed by Protein G chromatography and SDS-PAGE (FIG. 3) to determine IgG yield and purity respectively.

For assay [2], the target named is T2, Human polyclonal immunoglobulin G (IgG) (human).
T2 construct: also called hIgG; IVIG
In words: affinity chromatography of Cohn fraction II+III of human plasma on peptide resin; binding PBS + 0.25M NaCl, elution acetate pH 5.0; yield by Protein G chromatography.
Description: (§1) Toyopearl AF-rProtein A-650F resin was used as a positive control. As per manufacturer's instructions, the chromatographic protocol comprised binding with PBS, pH 7.4 (at a flow rate of 0.05 mL/min) and elution with 0.1M Glycine buffer pH 2.5 (at a flow rate of 0.4 mL/min). […] Fractions were collected and used for analysis of IgG purity and yield as described below.
The original peptide ligands were employed as positive controls. The crude stock of Cohn II+III paste was diluted in PBS to prepare the feed sample and solid particles were removed by filtration prior to injection into the column.

Assay [3] concerns the target T2, Human polyclonal immunoglobulin G (IgG). In words: affinity chromatography, peptide resin, 10 mg/mL hIgG in PBS; 1st run, before any enzyme.
Description: (§2) One hundred microliters of feed sample was loaded onto the column at a flow rate of 0.05 mL/min (87 cm/h).
(§3) Each adsorbent was subjected to five consecutive chromatographic runs. First, a solution of pure human polyclonal IgG at 10 mg/mL in PBS was injected to determine IgG yield for each adsorbent prior to contact with any enzyme. […] The resin was then contacted with a solution of α-chymotrypsin in Tris buffer pH 8.5 for 10 minutes. The amount of enzyme loaded onto the column was in a mass ratio of 1:100 peptide:enzyme, as done by Verdoliva et al. [35]. After rinsing the resin, a second injection of IgG was then performed to estimate the loss of binding capacity due to the digestion of the peptide ligand by α-chymotrypsin. The resin was then contacted with the second enzyme solution, i.e., trypsin in Tris buffer pH 8.5, at the same peptide:enzyme ratio. A third IgG injection was finally performed to estimate the residual binding capacity of each resin after the second enzyme treatment.
Assay [4] has the same target. The assay is described as follows: affinity chromatography, peptide resin, 10 mg/mL hIgG in PBS; 2nd run, after resin contacted with alpha-chymotrypsin.
Description: as §2, §3
The target is the same in assay [5]. The assay is described as follows: affinity chromatography, peptide on Toyopearl resin, pure human IgG load; yield = IgG eluted/IgG loaded, by Protein G chromatography.
Description: Each adsorbent thus obtained was packed into a chromatographic column (0.1 mL) and tested for IgG binding. Flowthrough and elution fractions were collected and analyzed by Protein G chromatography to determine IgG yield (Table 2).
Assay [6] has the same target. The assay is described as follows: affinity chromatography, peptide resin, 10 mg/mL hIgG in PBS; 3rd run, after alpha-chymotrypsin and then trypsin.
Description: as §2, §3
The target is the same in assay [7]. The assay is described as follows: affinity chromatography of Cohn fraction II+III on peptide resin; binding buffer PBS + 0.25M NaCl.
Description: as §1
Assay [8] has the same target. The assay is described as follows: affinity chromatography of Cohn fraction II+III on peptide resin; binding buffer PBS + 0M NaCl.
Assay [9] has the same target. The assay is described as follows: affinity chromatography of Cohn fraction II+III on peptide resin; binding buffer PBS + 0.13M NaCl.
Assay [10] deals with T1, albumin. The assay is described as follows: SDS-PAGE of fractions from peptide resin loaded with Cohn fraction II+III at different NaCl.

*1 amine or outer side, *2 acyl side, *3 side chain or, on linkers, in order; H or OH if unused. Where no end group is shown, it is not given here. [ ]: non-standard residue; d: D form. Tyr(Me) = O-methyl-tyrosine, COc1ccc(C[C@H](N[*:1])C(=O)[*:2])cc1; Trp(1-Me) = Cn1cc(C[C@H](N)C(=O)O)c2ccccc21; Phe(4-Me) = Cc1ccc(C[C@H](N)C(=O)O)cc1; Lys(Me2) = CN(C)CCCC[C@H](N)C(=O)O; Cit = NC(=O)NCCC[C@H](N)C(=O)O

T1 sequence (P02768 25-609 limits assumed): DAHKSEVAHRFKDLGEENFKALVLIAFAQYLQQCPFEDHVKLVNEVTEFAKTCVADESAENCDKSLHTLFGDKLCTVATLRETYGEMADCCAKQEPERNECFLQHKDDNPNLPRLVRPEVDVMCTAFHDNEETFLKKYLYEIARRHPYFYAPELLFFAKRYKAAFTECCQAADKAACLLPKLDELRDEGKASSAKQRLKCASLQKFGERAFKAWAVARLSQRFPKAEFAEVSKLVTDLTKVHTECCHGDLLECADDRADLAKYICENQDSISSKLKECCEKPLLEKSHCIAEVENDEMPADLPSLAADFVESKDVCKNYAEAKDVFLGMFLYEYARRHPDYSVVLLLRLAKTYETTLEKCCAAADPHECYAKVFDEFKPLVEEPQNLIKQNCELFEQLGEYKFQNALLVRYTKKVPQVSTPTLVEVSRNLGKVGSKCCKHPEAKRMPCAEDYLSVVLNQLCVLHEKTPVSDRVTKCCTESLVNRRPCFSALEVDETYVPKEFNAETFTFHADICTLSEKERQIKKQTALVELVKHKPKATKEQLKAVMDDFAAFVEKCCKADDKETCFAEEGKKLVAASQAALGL

B1: HFRRHL (peptide)
peptide: HFRRHL-{Toyopearl AF‑Amino‑650M resin}
notes: Synthetic hexapeptide on Toyopearl resin; also called HFRRHL-Toyopearl
Turning to B1, the binding result with albumin [1] is given as “binds”. In addition, the “IgG yield” value is 91% in [2]; 93% in assay [3]; 78% in assay [4]; 93% in [5]; 54% in assay [6].

B2: HWMetCitGWMetV (peptide)
peptide: H[Trp(1-Me)][Cit]G[Trp(1-Me)]V-{Toyopearl AF‑Amino‑650M resin}
notes: Variant of HWRGWV on Toyopearl resin; also called HWMetCitGWMetV-Toyopearl
For the molecule B2, the binding result with albumin [1] is recorded as “binds”. In addition, the “IgG yield” value in assay [2] was determined as 91%; in assay [3], 90%; in assay [4], 91%; in assay [7], 91%; in [5] it was 90%; in assay [6], 90%. The entries for the “IgG yield” value in [8] and in assay [9] were 89% and 90%, respectively.

B3: HFMetCitCitHL (peptide)
peptide: H[Phe(4-Me)][Cit][Cit]HL-{Toyopearl AF‑Amino‑650M resin}
notes: Variant of HFRRHL on Toyopearl resin; also called HFMetCitCitHL-Toyopearl
On to B3, for which the binding result with albumin [1] was “binds”. For the same molecule, the “IgG yield” value stood at 89% in [2]; 90% in assay [3]; 92% in assay [4]; 90% in [5]; 91% in assay [6].

B4: HWRGWV (peptide)
peptide: HWRGWV-{Toyopearl AF‑Amino‑650M resin}
modifications: not fully specified
notes: Synthetic hexapeptide made directly on Toyopearl AF-Amino-650M resin after a first Fmoc-Ala-OH coupling, about 0.12 meq/g; also called HWRGWV-Toyopearl; original peptide ligand
As for B4, the binding result with albumin [1] is given as “binds”. For the same molecule, the “IgG yield” value in [2] was 85%; in assay [3], 95%; in assay [4] it was 72%; in assay [7], 85%; in assay [5], 95%; in assay [6], 36%. For the same molecule, the “IgG yield” value in assay [8] worked out at 90%; in [9] it was 85%.

B5: HYFKFD (peptide)
peptide: HYFKFD-{Toyopearl AF‑Amino‑650M resin}
notes: Synthetic hexapeptide on Toyopearl resin; also called HYFKFD-Toyopearl
As for B5, in the assay with albumin [1], the binding result was “binds”. In addition, the “IgG yield” value came out at 54% in assay [2]; 78% in assay [3]; 76% in [4]; 78% in [5]; 71% in [6].

B6: Ac-HWMetCitGWMetV (peptide)
peptide: Ac-H[Trp(1-Me)][Cit]G[Trp(1-Me)]V-{Toyopearl AF‑Amino‑650M resin}
notes: Acetylated HWMetCitGWMetV on Toyopearl resin; also called Ac-HWMetCitGWMetV-Toyopearl
Consider B6, for which the “IgG yield” value worked out at 94% in [7], 91% in [8] and 93% in [9]. The binding result with albumin [10] is “binds”.

B7: HYMetFMetKMet2FMetD (peptide)
peptide: H[Tyr(Me)][Phe(4-Me)][Lys(Me2)][Phe(4-Me)]D-{Toyopearl AF‑Amino‑650M resin}
notes: Variant of HYFKFD on Toyopearl resin, used as a negative control; also called HYMetFMetK(Met)2FMetD-Toyopearl
For B7, the binding result with albumin [1] is listed as “binds”. Also, the “IgG yield” value in [2] was determined as 48%; in [3], 52%; in [4] it was 49%; in [5], 42%; in assay [6], 53%.
